Reference: the Human Domainome abundance scans (Beltran et al. 2025)

B1: RAS guanyl-releasing protein 1, residues 539 to 593; numbered along this chain, O95267 (parent)
chain: GFPHNFQETTYLKPTFCDNCAGFLWGVIKQGYRCKDCGMNCHKQCKDLVVFECKK
B2: POU domain, class 4, transcription factor 2, residues 256 to 327; numbered along this chain, Q12837 (parent)
chain: RDLEAFAERFKQRRIKLGVTQADVGSALANLKIPGVGSLSQSTICRFESLTLSHNNMIALKPILQAWLEEAE

Variants of: B1
Test: abundance fitness (aPCA) (normalised: wild type 0, dead -1); higher = more abundant; growth selection in yeast, the domain comes from the species named
Settings: Homo sapiens

Abundance fitness of substitutions, site by site:
K55: R -0.435 | D -0.528 | L -0.718 | G -0.084 | H -0.597 | N -0.138 | E -0.242 | S 0.077 | T -0.271
C53: W -0.082 | Y -0.198
K54: V -0.248 | Q -0.113 | I -0.266 | R -0.028 | D -0.186 | P -0.586 | L -0.269 | A -0.233 | C -0.157 | F -0.228 | H -0.567 | G -0.303 | W -0.378 | M 0.018 | N -0.113 | E -0.103

Variants of: B2
Test: as above
Settings: Homo sapiens

Abundance fitness of substitutions, site by site:
K11: G -0.678 | L -0.661 | F -0.761 | P -0.994 | A -0.337 | E -0.914 | M -0.706 | H -0.901
A7: G -0.639 | W -0.709 | V 0.08 | P -0.768 | H -0.772 | Q -1.01 | Y -0.537 | C -0.358 | D -0.769 | M -0.774 | S -0.455 | E -0.443 | L -0.936 | N -0.907
A5: W -0.491 | R -0.001 | Q -0.055 | P -0.277 | C -0.311 | L 0.017 | N 0.093 | V 0.004 | T -0.201 | F 0.033 | I -0.008 | E -0.329 | S -0.167
R1: P -0.199 | S -0.235 | G 0.055 | L -0.354 | E 0.368 | V -0.107 | T -0.186 | W -0.143 | A 0.078 | C -0.445
E8: K 0.007 | Y 0.036 | D -0.172 | F -0.306 | P -0.862 | R 0.031 | N 0.049 | I 0 | C -0.313 | V -0.121 | M -0.137 | W -0.208 | H -0.016 | A -0.232 | L -0.072 | Q -0.091 | G -0.119 | T -0.222
F10: E -0.755 | D -0.823 | Q -0.825 | L -0.921 | C -0.817 | M -0.694 | G -0.955 | I -0.632 | S -1 | R -0.814 | P -0.994 | V -0.59 | T -0.707
E4: G -0.368 | D -0.282 | M -0.004 | L -0.165 | W -0.234 | F -0.251 | A -0.048 | P -0.335 | T -0.002 | C -0.273 | R -0.137 | K -0.137 | H -0.119 | S -0.141 | V -0.085 | Q -0.134 | Y 0.13 | I -0.002
R9: A -0.07 | T 0.033 | E 0.263 | L 0.1 | H 0.15 | I -0.347 | W -0.136 | Y -0.055 | K 0.007 | D 0.307 | G -0.061 | M 0.095 | C 0.014 | P -0.782 | N -0.005 | Q 0.195 | S 0.018 | F -0.335
L3: Y -0.213 | N -0.382 | R -0.74 | V -0.153 | G -0.947 | H -0.368 | I 0.072 | W -0.283 | D -0.658 | M 0.064 | P -0.558 | E -0.573 | T -0.327 | Q -0.437
D2: R -0.379 | W -0.185 | H -0.497 | E -0.102 | P -0.266 | A -0.241 | F -0.376 | L -0.568 | G -0.21 | N 0.077 | M -0.318 | Y -0.171 | C -0.511 | S -0.124
